According to PMC9832876, “PpTCP18 is upregulated by lncRNA5 and controls branch number in peach (Prunus persica) through positive feedback regulation of strigolactone biosynthesis”:
Numbering of substitutions follows the chain as printed.

T1: PpTCP18 (Prunus persica, UniProt A0A251PBZ8 1-468)
T1 sequence: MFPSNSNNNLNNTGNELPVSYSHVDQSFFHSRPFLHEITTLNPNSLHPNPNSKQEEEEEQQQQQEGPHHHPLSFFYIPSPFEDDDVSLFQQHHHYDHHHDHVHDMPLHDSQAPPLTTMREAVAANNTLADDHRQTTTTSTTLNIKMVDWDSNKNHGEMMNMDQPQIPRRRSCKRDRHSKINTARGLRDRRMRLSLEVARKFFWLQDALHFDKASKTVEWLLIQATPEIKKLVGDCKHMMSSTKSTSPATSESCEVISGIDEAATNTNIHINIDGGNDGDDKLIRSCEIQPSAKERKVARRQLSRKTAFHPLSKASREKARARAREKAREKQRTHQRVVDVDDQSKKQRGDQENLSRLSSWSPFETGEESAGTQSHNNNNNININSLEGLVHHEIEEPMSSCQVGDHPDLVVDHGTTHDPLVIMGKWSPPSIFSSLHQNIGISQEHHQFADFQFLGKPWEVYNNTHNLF

B1: PpLBO1 promoter probe (dsDNA)
DNA 1: GTAAATACTCCAAACCATTACACTAGTGGGTCCTTTACTAATTACATTGTTTTAA
DNA 2: TTAAAACAATGTAATTAGTAAAGGACCCACTAGTGTAATGGTTTGGAGTATTTAC
B2: PpLBO1 mutated probe (GGGTCC to AAAAAA) (dsDNA)
DNA 1: B1 DNA 1 with G28A, G29A, G30A, T31A, C32A, C33A
DNA 2: B1 DNA 2 with G23T, G24T, A25T, C26T, C27T, C28T
B3: PpMAX4 promoter probe (dsDNA)
DNA 1: ATATTGTAATTTTTCACTGGCATACTGGTCCCTAATCACCAATTAACGCAACAT
DNA 2: ATGTTGCGTTAATTGGTGATTAGGGACCAGTATGCCAGTGAAAAATTACAATAT
B4: PpMAX4 mutated probe (GGTCCC to AAAAAA) (dsDNA)
DNA 1: B3 DNA 1 with G27A, G28A, T29A, C30A, C31A, C32A
DNA 2: B3 DNA 2 with G23T, G24T, G25T, A26T, C27T, C28T
B5: PpMAX3 promoter probe (dsDNA)
DNA 1: CGTAACCCTCCATTTAAAAAAGTGGGTCCCAAATCCCAAAGCATGAGTGGATGGAGAGGAA
DNA 2: TTCCTCTCCATCCACTCATGCTTTGGGATTTGGGACCCACTTTTTTAAATGGAGGGTTACG

Assays:
PpTCP18 [1] = target: T1, PpTCP18; experiment: EMSA; weakened by 100-fold unlabeled probe; Thermo Scientific EMSA kit, manufacturer's instructions; buffer, salt, pH and temperature not stated; details: protein: recombinant; tags: MBP; chain copies: 2; label: 5' biotin; blunt
PpTCP18 [2] = target: T1, PpTCP18; experiment: EMSA; Thermo Scientific EMSA kit, manufacturer's instructions; buffer, salt, pH and temperature not stated; details: protein: recombinant; tags: MBP; chain copies: 2; label: 5' biotin; blunt

Binder | binding result (PpTCP18 [1]) | binding result (PpTCP18 [2])
B1 | binds | 
B2 |  | no binding
B3 | binds | 
B4 |  | no binding
B5 | binds | 
